Assay in all cases: Kinase profiling (radiometric filter-binding)
Holding throughout (assay type): biochemical

The target of one data set is T1, PKC (Homo sapiens, UniProt Q05513).
T1 sequence (Q05513 1-592): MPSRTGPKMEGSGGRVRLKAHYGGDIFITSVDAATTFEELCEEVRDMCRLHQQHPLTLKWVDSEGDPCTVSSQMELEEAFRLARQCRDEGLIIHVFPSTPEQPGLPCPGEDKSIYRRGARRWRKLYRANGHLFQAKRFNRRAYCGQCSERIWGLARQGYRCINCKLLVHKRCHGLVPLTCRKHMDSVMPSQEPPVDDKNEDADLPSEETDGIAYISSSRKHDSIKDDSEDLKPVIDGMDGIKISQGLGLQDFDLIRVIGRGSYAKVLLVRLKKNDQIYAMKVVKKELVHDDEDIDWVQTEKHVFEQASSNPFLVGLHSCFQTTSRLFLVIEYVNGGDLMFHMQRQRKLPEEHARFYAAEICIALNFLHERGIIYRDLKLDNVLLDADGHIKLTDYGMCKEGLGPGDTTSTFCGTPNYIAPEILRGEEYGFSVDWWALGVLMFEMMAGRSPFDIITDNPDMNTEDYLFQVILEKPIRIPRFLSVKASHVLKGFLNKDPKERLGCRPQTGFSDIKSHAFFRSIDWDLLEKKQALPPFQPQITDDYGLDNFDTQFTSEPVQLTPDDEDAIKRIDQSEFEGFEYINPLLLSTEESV
To be noted: second of two PKC lines (Greek letter lost), 1 µM inhibitor, read-out: Residual activity, %. An outline of the steps:
(§1)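 A 1 µM final dose of each inhibitor was profiled on human protein kinases; ATP was kept at or beneath the KM of every enzyme, and radiometric filter binding measured turnover, expressed as % of the inhibitor-free reaction.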

A further data set has as its target CLK2 (Homo sapiens, UniProt P49760). As to conditions: CLK2, 1 µM inhibitor; read-out: Residual activity, %. An outline of the steps: as §1
Another data set deals with PKB (Homo sapiens, UniProt P31749). To be noted: first of two PKB lines (Greek letter lost), 1 µM inhibitor, read-out: Residual activity, %. The method, boiled down:
as §1

Another data set has as its target T2, EPH-B3 (Homo sapiens, UniProt P54753).
T2 sequence (P54753 34-998): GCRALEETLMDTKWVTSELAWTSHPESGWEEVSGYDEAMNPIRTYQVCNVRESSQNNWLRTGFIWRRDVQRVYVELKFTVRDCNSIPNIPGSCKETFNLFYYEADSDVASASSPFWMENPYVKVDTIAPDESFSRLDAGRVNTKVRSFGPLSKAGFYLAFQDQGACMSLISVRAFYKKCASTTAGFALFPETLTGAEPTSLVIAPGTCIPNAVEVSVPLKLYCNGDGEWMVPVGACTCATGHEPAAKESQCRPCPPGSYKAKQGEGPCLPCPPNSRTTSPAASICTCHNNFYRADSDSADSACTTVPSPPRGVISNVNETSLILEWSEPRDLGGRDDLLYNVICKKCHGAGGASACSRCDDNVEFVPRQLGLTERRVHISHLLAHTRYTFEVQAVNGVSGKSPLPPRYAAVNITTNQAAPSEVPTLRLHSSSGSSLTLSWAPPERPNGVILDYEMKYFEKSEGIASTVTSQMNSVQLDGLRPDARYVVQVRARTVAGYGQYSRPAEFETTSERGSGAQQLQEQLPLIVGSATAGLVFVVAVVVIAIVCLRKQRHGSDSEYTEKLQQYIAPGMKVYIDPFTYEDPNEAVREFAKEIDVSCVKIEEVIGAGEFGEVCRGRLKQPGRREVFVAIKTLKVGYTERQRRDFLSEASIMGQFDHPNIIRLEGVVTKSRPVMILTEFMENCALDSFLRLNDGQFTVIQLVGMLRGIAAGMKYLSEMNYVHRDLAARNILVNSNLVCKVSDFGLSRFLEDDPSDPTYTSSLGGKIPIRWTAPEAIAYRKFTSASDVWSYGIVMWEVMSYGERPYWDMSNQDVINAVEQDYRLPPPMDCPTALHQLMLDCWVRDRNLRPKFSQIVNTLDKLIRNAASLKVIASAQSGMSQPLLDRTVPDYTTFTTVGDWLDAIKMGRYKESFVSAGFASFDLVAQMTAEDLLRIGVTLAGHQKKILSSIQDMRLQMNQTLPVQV
To be noted: EPH-B3, 1 µM inhibitor; read-out: Residual activity, %. An outline of the steps: as §1

Another data set concerns the target PKCγ (Homo sapiens, UniProt P05129). To be noted: 1 µM inhibitor, read-out: Residual activity, %. The method, boiled down:
as §1

The next data set concerns the target CK1δ (Homo sapiens, UniProt P48730). To be noted: 1 µM inhibitor, read-out: Residual activity, %. The method, boiled down:
as §1

For another data set, the target named is PIM1 (Homo sapiens, UniProt P11309). As to conditions: PIM1, 1 µM inhibitor; for remaining activity at 1 µM: read-out: Residual activity, %. An outline of the steps: as §1
Chain of PIM1 (P11309 whole entry): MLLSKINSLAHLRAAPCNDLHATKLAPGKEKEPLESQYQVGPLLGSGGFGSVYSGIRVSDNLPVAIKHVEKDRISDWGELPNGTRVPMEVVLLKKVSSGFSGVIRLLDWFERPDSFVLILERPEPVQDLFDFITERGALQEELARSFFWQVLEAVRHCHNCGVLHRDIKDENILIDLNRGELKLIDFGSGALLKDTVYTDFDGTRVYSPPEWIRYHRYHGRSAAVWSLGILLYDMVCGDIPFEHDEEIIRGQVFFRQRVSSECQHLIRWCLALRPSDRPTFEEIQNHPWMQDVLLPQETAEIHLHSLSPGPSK
A further data set addresses T3, TGFBR1 (Homo sapiens, UniProt P36897).
T3 sequence (P36897 34-503): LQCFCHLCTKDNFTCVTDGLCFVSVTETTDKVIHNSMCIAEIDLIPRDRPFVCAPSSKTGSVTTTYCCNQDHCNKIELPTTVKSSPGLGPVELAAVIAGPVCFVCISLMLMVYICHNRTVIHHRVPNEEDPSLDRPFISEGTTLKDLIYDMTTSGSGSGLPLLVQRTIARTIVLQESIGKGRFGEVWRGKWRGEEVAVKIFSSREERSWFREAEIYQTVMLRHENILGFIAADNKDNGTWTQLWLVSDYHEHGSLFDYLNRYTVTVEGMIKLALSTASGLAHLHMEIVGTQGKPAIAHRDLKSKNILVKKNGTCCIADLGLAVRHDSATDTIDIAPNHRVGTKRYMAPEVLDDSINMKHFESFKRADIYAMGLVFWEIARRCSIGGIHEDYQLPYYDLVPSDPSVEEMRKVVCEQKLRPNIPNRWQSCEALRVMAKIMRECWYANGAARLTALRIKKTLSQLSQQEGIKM
As to conditions: TGFBR1, 1 µM inhibitor; read-out: Residual activity, %. An outline of the steps:
as §1

In a further data set the target is SRPK1 (Homo sapiens, UniProt Q96SB4). To be noted: SRPK1, 1 µM inhibitor; read-out: Residual activity, %. The method, boiled down: as §1
Chain of SRPK1 (Q96SB4 whole entry): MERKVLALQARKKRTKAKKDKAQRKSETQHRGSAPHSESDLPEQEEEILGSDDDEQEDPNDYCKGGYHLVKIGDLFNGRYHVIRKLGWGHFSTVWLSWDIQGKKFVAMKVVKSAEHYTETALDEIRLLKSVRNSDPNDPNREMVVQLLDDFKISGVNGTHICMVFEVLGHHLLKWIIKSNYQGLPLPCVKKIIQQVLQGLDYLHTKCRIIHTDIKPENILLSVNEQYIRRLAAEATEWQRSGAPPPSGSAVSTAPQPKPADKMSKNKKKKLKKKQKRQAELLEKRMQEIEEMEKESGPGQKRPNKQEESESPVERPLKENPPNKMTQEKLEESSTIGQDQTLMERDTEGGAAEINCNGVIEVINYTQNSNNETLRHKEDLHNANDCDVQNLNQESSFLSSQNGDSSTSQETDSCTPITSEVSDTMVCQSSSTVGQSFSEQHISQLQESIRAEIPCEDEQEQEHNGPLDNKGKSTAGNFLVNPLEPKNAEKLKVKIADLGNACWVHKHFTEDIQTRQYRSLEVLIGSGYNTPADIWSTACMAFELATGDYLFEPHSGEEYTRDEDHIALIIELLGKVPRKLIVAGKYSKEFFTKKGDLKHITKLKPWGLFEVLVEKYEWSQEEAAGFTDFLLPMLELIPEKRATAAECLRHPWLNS
The target of another data set is CK1γ2 (Homo sapiens, UniProt P78368). As to conditions: CK1γ2, 1 µM inhibitor; read-out: Residual activity, %. An outline of the steps: as §1
Chain of CK1γ2 (P78368 whole entry): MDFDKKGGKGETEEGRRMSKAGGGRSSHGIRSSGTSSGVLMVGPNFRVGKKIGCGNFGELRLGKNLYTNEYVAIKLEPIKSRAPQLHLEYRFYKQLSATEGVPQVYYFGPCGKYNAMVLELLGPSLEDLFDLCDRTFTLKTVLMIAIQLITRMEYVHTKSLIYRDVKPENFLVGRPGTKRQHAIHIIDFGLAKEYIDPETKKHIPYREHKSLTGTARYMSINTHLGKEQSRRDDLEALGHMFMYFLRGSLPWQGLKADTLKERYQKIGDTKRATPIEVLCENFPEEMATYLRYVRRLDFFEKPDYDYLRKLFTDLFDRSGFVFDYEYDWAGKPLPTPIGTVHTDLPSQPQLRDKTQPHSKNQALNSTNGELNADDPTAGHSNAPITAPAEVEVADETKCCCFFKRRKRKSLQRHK

Square brackets hold non-standard residues; d marks the D form. Peptide text beside a SMILES is read from it. * marks the point of attachment. X3 = O=C(CCCCCNCc1nc2c(sc3cc(Br)cnc32)c(=O)[nH]1)*

Chain of CK1δ (P48730 whole entry): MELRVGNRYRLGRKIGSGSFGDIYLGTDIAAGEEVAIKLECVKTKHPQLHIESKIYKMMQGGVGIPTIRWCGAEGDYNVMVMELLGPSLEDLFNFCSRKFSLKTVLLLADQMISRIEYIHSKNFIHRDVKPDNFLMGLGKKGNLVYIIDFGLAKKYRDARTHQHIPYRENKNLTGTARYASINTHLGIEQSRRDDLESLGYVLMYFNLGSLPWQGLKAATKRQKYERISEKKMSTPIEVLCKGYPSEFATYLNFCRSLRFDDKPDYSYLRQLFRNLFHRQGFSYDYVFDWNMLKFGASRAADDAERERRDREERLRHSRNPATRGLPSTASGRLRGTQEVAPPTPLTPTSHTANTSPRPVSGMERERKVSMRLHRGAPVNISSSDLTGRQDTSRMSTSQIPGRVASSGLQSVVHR
Chain of PKB (P31749 whole entry): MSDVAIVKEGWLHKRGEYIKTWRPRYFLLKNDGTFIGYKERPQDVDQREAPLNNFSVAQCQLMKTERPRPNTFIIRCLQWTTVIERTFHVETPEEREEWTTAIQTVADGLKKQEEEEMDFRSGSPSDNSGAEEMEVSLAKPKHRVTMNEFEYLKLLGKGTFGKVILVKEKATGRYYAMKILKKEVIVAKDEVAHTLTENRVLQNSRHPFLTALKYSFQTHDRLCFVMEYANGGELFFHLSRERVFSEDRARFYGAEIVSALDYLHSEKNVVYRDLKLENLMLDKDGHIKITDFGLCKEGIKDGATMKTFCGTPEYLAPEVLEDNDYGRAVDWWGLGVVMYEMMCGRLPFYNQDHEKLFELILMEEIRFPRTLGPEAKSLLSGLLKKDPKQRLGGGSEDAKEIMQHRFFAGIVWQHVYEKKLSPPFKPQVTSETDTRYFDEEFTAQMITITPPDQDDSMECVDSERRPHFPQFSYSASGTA
Chain of CLK2 (P49760 whole entry): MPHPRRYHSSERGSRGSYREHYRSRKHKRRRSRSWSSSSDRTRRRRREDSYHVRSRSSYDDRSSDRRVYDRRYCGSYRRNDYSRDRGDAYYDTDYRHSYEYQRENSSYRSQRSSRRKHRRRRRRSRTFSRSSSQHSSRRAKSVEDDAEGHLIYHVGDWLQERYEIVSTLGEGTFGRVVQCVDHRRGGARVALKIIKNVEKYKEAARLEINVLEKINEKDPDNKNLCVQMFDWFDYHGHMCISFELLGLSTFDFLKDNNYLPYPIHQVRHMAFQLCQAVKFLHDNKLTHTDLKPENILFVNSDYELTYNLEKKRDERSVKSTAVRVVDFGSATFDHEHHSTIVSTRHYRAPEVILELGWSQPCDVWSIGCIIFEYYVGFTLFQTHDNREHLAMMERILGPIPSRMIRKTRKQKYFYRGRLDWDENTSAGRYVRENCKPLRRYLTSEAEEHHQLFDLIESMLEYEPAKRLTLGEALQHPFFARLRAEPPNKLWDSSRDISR

For `N=C(N)NCCC[C@@H](NC(=O)CCCCCNC(=O)Cn1cnc2c(I)c(I)c(I)c(I)c21)C(=O)N[C@H](CCCNC(=N)N)C(=O)N[C@H](CCCNC(=N)N)C(=O)N[C@H](CCCNC(=N)N)C(=O)N[C@H](CCCNC(=N)N)C(=O)N[C@H](CCCNC(=N)N)C(=O)N[C@H](CCCCN)C(N)=O` [ARC-3125, TIBI-CH2-C(=O)-Ahx-(D-Arg)6-D-Lys-NH2], the remaining activity at 1 µM in the data set with PKC is 14 ± 1%; with CLK2, -1 ± 5%; with PKB, -1 ± 1%; in the data set with EPH-B3, 104 ± 3%; in the data set with PKCγ, 86 ± 9%; in the data set with CK1δ it was 71 ± 4%. The remaining activity at 1 µM with PIM1 stood at 0%; with TGFBR1, 108 ± 18%; in the data set with SRPK1, 54 ± 1%; with CK1γ2 it was 45 ± 5%.

For `N=C(N)NCCC[C@@H](NC(=O)CCCCCNCc1nc2c(sc3cc(Br)cnc32)c(=O)[nH]1)C(=O)N[C@H](CCCNC(=N)N)C(=O)N[C@H](CCCNC(=N)N)C(=O)N[C@H](CCCNC(=N)N)C(=O)N[C@H](CCCNC(=N)N)C(=O)N[C@H](CCCNC(=N)N)C(=O)N[C@H](CCCCN)C(N)=O` [ARC-3126, BPTP-Ahx-(D-Arg)6-D-Lys-NH2] (X3-[dR][dR][dR][dR][dR][dR][dK]-NH2), the remaining activity at 1 µM with PKC was 92 ± 4%; with CLK2, 57 ± 15%; with PKB, 80 ± 4%; with EPH-B3, 94 ± 10%; with PKCγ, 98 ± 8%; in the data set with CK1δ, 99 ± 1%. Further, the remaining activity at 1 µM was 0% in the data set with PIM1, 109 ± 2% in the data set with TGFBR1, 89 ± 5% with SRPK1 and 66 ± 10% with CK1γ2. The “Residual activity, %” value with PIM1 is “zero”.

Regarding `N=C(N)NCCC[C@@H](NC(=O)CNC(=O)[C@@H](CCCNC(=N)N)NC(=O)[C@@H](CCCNC(=N)N)NC(=O)CCCCCCCNCc1nc2c(sc3cc(Br)cnc32)c(=O)[nH]1)C(=O)N[C@H](CCCCN)C(N)=O` [Compound 1, BPTP-Aoc-(D-Arg)2-Gly-D-Arg-D-Lys-NH2], the remaining activity at 1 µM worked out at 95 ± 6% with PKC; 97% with CLK2; 101 ± 6% with PKB; 107 ± 26% with EPH-B3; 99 ± 11% in the data set with PKCγ; 104 ± 4% with CK1δ. The remaining activity at 1 µM in the data set with PIM1 amounted to 9%; with TGFBR1, 103 ± 8%; with SRPK1, 102 ± 1%; with CK1γ2, 117 ± 3%.

With `N=C(N)NCCC[C@@H](NC(=O)CNC(=O)[C@@H](CCCNC(=N)N)NC(=O)[C@@H](CCCNC(=N)N)NC(=O)CCCCCCCNCc1nc2c(sc3ccc(Br)cc32)c(=O)[nH]1)C(=O)N[C@H](CCCCN)C(N)=O` [Compound 2, BBTP-Aoc-(D-Arg)2-Gly-D-Arg-D-Lys-NH2], the remaining activity at 1 µM with PKC stood at 118 ± 11%; with CLK2, 24%; with PKB, 67 ± 7%; with EPH-B3 it was 106 ± 2%; in the data set with PKCγ, 97 ± 3%; with CK1δ, 99 ± 3%. Also, the remaining activity at 1 µM came out at 5 ± 3% with PIM1, 106 ± 7% in the data set with TGFBR1, 113 ± 7% in the data set with SRPK1 and 116 ± 10% with CK1γ2.

With `N=C(N)NCCC[C@@H](NC(=O)CNC(=O)[C@@H](CCCNC(=N)N)NC(=O)[C@@H](CCCNC(=N)N)NC(=O)Cn1cc(CNCc2nc3c(sc4ccc(Br)cc43)c(=O)[nH]2)nn1)C(=O)N[C@H](CCCCN)C(N)=O` [Compound 3, BBTP-Amt-(D-Arg)2-Gly-D-Arg-D-Lys-NH2], the remaining activity at 1 µM with PKC is 89 ± 2%; with CLK2 it was 30 ± 1%; with PKB it was 72 ± 12%; in the data set with EPH-B3, 79 ± 3%; with PKCγ it was 105 ± 9%; with CK1δ, 88 ± 12%. Besides, the remaining activity at 1 µM with PIM1 came to 5 ± 1%; in the data set with TGFBR1, 95 ± 10%; with SRPK1, 91 ± 2%; with CK1γ2 it was 88 ± 1%.

Values taken from publication PMC8307404, “Crystal Structure-Guided Design of Bisubstrate Inhibitors and Photoluminescent Probes for Protein Kinases of the PIM Family” (Molecules, 2021).
